Measurements: US20260209346A1 (LTZ THERAPEUTICS, published 2026)

T1: human CD79b recombinant protein (human, UniProt P40259 29-159)
T1 construct: also called human CD79b ECD antigen; recombinant human CD79b ECD
T1 sequence: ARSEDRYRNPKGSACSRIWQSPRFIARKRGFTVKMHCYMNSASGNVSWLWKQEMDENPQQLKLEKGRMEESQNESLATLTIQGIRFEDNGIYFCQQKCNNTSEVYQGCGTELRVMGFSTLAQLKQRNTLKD

T2: CD79b endogenously expressed on the cell surface (malignant B cell lines, normal B cells in PBMC, CLL … (human, UniProt P40259 29-229))
T2 construct: whole, on cells; On cells CD79b stands in the B-cell receptor complex with CD79a and surface Ig; also called cell surface CD79b; endogenous CD79b
T2 sequence (looked up): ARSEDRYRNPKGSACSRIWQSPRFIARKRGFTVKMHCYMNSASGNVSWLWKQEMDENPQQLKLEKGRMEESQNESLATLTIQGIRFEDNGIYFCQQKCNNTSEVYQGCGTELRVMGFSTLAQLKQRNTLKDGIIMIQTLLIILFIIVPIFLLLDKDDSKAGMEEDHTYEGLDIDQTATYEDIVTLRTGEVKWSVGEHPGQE

T3: cynomolgus CD79b recombinant protein (cynomolgus)
T3 chain: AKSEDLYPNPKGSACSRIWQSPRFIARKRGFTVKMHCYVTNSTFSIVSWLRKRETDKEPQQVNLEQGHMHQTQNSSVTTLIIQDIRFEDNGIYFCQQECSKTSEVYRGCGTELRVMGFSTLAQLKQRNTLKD


What was measured:
[1] = target: T1, human CD79b recombinant protein; test: ELISA, coated human CD79b recombinant protein
Method: (§1) Binding affinities of anti-CD79b antibodies to human and cynomolgus CD79b recombinant proteins were tested by ELISA. 1 ug/ml (in PBS buffer) of human or cynomolgus CD79b recombinant proteins were coated on an ELISA plate overnight. ELISA plates were washed and blocked with blocking buffer (PBS+1% BSA) followed by incubation with serially diluted anti-CD79b primary antibodies. Anti-CD79b antibody binding was quantified using an anti-human IgG HRP secondary antibody (Biolegend Catalog #410902) and HRP substrate.

[2] = target: T2, CD79b endogenously expressed on the …; test: flow cytometry on Nalm-6 cells; anti-human IgG1-PE; MFI (PE); table under the graph
Method: (§2) The binding affinities of anti-CD79b antibodies to malignant B cell lines were tested. […] The cells were then incubated with 100 μl anti-human IgG1-PE (Invitrogen, cat: 12-4998-82), 1:1000 dilution, for 30 min on ice, washed with 200 ul PBS for three times before flow cytometry analysis.

[3] = target: T2, CD79b endogenously expressed on the …; test: flow cytometry on BJAB cells; anti-human IgG1-PE; MFI (PE); table under the graph
Method: as §2

[4] = target: T2, CD79b endogenously expressed on the …; test: flow cytometry on Daudi cells; anti-human IgG1-PE; MFI (PE); table under the graph
Method: as §2

[5] = target: T2, CD79b endogenously expressed on the …; test: flow cytometry on Ramos cells; anti-human IgG1-PE; MFI (PE); table under the graph
Method: as §2

[6] = target: T2, CD79b endogenously expressed on the …; test: flow cytometry on SU-DHL-4 cells; anti-human IgG1-PE; MFI (PE); table under the graph
Method: as §2

[7] = target: T1, human CD79b recombinant protein; test: BLI; antibody at 10 ug/ml captured on anti-human IgG Fc probes, hCD79b in solution; same value printed in the rows for 18.3 and 9.14 nM hCD79b
Method: (§3) Binding affinities of anti-CD79b antibodies to human CD79b recombinant proteins were tested by BLI. 10 ug/ml of anti-CD79b antibodies were captured by anti-human IgG Fc probes (Gator Bio Catalog #160024). […] Absolute kD was determined by applying a 1:1 binding model (Global Rmax unlinked).

[8] = target: T1, human CD79b recombinant protein; test: BLI, antibody captured on anti-human IgG Fc probes, human CD79b in solution, 1:1 model
Method: as §3

[9] = target: T1, human CD79b recombinant protein; test: ELISA on recombinant human CD79b ECD; A 450nm
[10] = target: T2, CD79b endogenously expressed on the …; test: flow cytometry on a cell line expressing endogenous CD79b (not named on the sheet or in the text); MFI (PE)
[11] = target: T2, CD79b endogenously expressed on the …; test: flow cytometry on PBMC of Donor 889, B cells marked with CD19-BV421; anti-human IgG1-PE; MFI (PE); table under the graph
Method: (§4) The binding affinities of anti-CD79b antibodies to endogenous B cells were tested. […] The cells were then incubated with […] mixture of anti-human IgG1-PE (Invitrogen, Cat #: 12-4998-82), 1:1000 dilution; CD19-BV421 (Biolegend, Cat #:302230, 1:400 dilution) for 30 min on ice, and washed with 200 ul PBS for three times before flow cytometry analysis.

[12] = target: T2, CD79b endogenously expressed on the …; test: flow cytometry on PBMC of CLL Donor 0255 (B lymphocytes); PE goat anti-human IgG Fc; MFI PE
Method: To determine the binding affinities of the anti-CD79b antibodies to cell surface CD79b on Chronic Lymphocytic Leukemia (CLL) patient's B lymphocytes, a cell-based binding assay was conducted. […] CLL patient PBMCs were purchased from the company Bioscience. […] Specifically, 2.5×10⁴ PBMC cells in 50 μl FACS buffer (1×PBS+2% BSA+2 mM EDTA) were seeded in each well of a V bottom 96-well plate. […] The mixture was incubated on ice for 30 minutes, and then washed twice with FACS buffer. The cells were re-suspended in 100 μl FACS buffer containing PE conjugated goat anti-human IgG Fc (1:1000) and anti-human CD19 (BV421), and incubated for 30 minutes on ice in darkness. After washing twice with FACS buffer, the cells were re-suspended in 100 μl of FACS buffer and analyzed with a Cytek cytometer.

[13] = target: T2, CD79b endogenously expressed on the …; test: flow cytometry on PBMC of Donor 2890, B cells marked with CD19-BV421; anti-human IgG1-PE; MFI (PE); table under the graph
Method: as §4

[14] = target: T2, CD79b endogenously expressed on the …; test: flow cytometry on PBMC of Donor 2235, B cells marked with CD19-BV421; anti-human IgG1-PE; MFI (PE); table under the graph
Method: as §4

[15] = target: T2, CD79b endogenously expressed on the …; test: flow cytometry on PBMC of Donor 356, B cells marked with CD19-BV421; anti-human IgG1-PE; MFI (PE); table under the graph
Method: as §4

[16] = target: T3, cynomolgus CD79b recombinant protein; test: ELISA, coated cynomolgus CD79b recombinant protein
Method: as §1

| Binder | IC50 [1] [nM] | EC50 [2] [nM] | EC50 [3] [nM] | EC50 [4] [nM] | EC50 [5] [nM] | EC50 [6] [nM] | koff [7] [s⁻¹] | kon [7] [M⁻¹ s⁻¹] | Kd [8] [nM] | EC50 (read off the curve) [9] [nM] | EC50 (read off the curve) [10] [nM] | EC50 [11] [nM] | EC50 (read off the curve) [12] [nM] | EC50 [13] [nM] | EC50 [14] [nM] | EC50 [15] [nM] | IC50 [16] [nM] |
| --- | --- | --- | --- | --- | --- | --- | --- | --- | --- | --- | --- | --- | --- | --- | --- | --- | --- |
| ch22D10 (antibody, human IgG1, kappa, V domains shown, Rabbit/human chimeric IgG1 kappa; also called chimeric 22D10) VH: QSVEESGGRLVTPGTPLTLTCTASGFTINDYHMNWVRQAPGKGLEWIGIISSNGDTYYASWAKGRFTISRTSTTVDLKMTSLTTEDTATYFCARDDRDRSYAFDPWGPGTLVTVSS VL: ALVMTQTPSSVSAAVGGTVTINCRASEDIERYLAWYQQKPGQRPKLLIYGASTLASGVPSRFKGSGSGTEYTLTISGVQPDDAATYYCHQGDSSRNVVNVFGGGTEVVVKR | 0.22 | 0.43 | 0.34 | 0.24 | 0.36 | 0.4 | 0.000106 | 338000 | 0.313 |  |  |  |  |  |  |  |  |
| hu44G2 (antibody, V domains shown, Humanized antibody; also called humanized 44G2) VH: EQQLVETGGGLIQPGGSLRLSCAASGFTINIDYWISWVRQAPGKGLEWIGIIDPGDGTTYFAIWVSGRFTISFDNSKNTVYLQMNSLRAEDTAVYFCVREFSASAYQYDLWGPGTLVTVSS VL: ELVMTQSPATLSVSPGERATLSCRASEDIENYLAWYQQKPGQPPRLLIYRASTLSSGVPARFSGSGSGTEFTLTISSLQSEDFAVYYCQQGYRNSNVDNPFGGGTKVEIK |  |  |  |  |  |  |  |  |  | ~0.2 | ~0.2 |  |  |  |  |  |  |
| ch48H10 (antibody, human IgG1, kappa, V domains shown, Rabbit/human chimeric IgG1 kappa; also called chimeric 48H10) VH: QSVKETGGGLVQPGGSLTLSCKASGFTINIDYWISWVRQAPGKGLEWIGIIDPGDGTTYFAIWVSGRFTISTDNAQNTVDLQMNSLTAADTATYFCAREFSASAYQYDLWGPGTLVTVSS VL: ALVMTQTPSSVSAAVGGTVSINCQASEDIESYLTWYQQKPGQPPKLLMYRASTLSSGVSSRFSASGSGTEFTLTISGVQPDDAATYYCQQGYRNKDVDNPFGGGTEVVVKR | 0.6 | 2.69 | 0.98 | 1.38 | 1.32 | 0.98 | 1.09e-05 | 346000 | 0.0314 | ~0.3 | ~0.4 | 0.154 | ~0.9 | 1.17 | 0.272 | 0.446 | 65.3 |
| ch57B9 (antibody, human IgG1, kappa, V domains shown, Rabbit/human chimeric IgG1 kappa; also called chimeric 57B9) VH: QSVRETGGGLVQPGGSLTLSCEASEFTINIDYWISWVRQAPGKGLEWIGIIDPGDGTTYFAIWVSGRFTITRNTNLNTVDLKMTSLTEADTATYFCAREVSASAYQYDLWGPGTLVTVSS VL: ALVMTQTPSSVSADVGGTVSINCQASEDIESYLAWYQQKPGQPPKLLIYFTSNLASGVPSRFKGSGSGTEYTLTISGVQPDDAATYYCQQGYRNSDVHNPFGGGTEVVVKR | 0.42 | 1.73 | 0.91 | 1.22 | 1.3 | 0.89 | 8.8e-05 | 368000 | 0.239 | ~0.1 | ~0.3 |  | ~0.9 |  |  |  | 186 |

More lines, now with the values ahead:

| IC50 [1] [nM] | EC50 [2] [nM] | EC50 [3] [nM] | EC50 [4] [nM] | EC50 [5] [nM] | EC50 [6] [nM] | koff [7] [s⁻¹] | kon [7] [M⁻¹ s⁻¹] | Kd [8] [nM] | EC50 (read off the curve) [9] [nM] | EC50 (read off the curve) [10] [nM] | EC50 [11] [nM] | EC50 (read off the curve) [12] [nM] | EC50 [13] [nM] | EC50 [14] [nM] | EC50 [15] [nM] | IC50 [16] [nM] | Binder |
| --- | --- | --- | --- | --- | --- | --- | --- | --- | --- | --- | --- | --- | --- | --- | --- | --- | --- |
|  |  |  |  |  |  |  |  |  | ~0.1 | ~0.5 |  |  |  |  |  |  | hu23D8 (antibody, V domains shown, Humanized antibody; also called humanized 23D8) VH: EQQLLESGGGLVQPGGSLRLSCAVSGLSLSSNAINWVRQAPGKGLEWIGMIYSGGRIEYASWAKGRFTISKDSSKNTVYLQMNSLRAEDTAVYFCAKGMSPSAHSSDIWGPGTLVTVSS VL: EGVMTQSPATLSVSPGERATLSCQASQSISDNLSWYQQKPGQPPRLLIYDASDLASGVPARFSGSGSGTEFTLTISSLQSEDFAVYYCQQDWISSNVDNTFGGGTKVEIK |
|  |  |  |  |  |  |  |  |  | ~0.08 | ~0.2 |  |  |  |  |  |  | hu57B9 (antibody, V domains shown, Humanized antibody; also called humanized 57B9) VH: EQQLVETGGGLIQPGGSLRLSCAASEFTINIDYWISWVRQAPGKGLEWIGIIDPGDGTTYFAIWVSGRFTISRDTSKNTVYLQMNSLRAEDTAVYFCAREVSASAYQYDLWGPGTLVTVSS VL: ELVMTQSPATLSVSPGERATLSCQASEDIESYLAWYQQKPGQPPRLLIYFTSNLASGVPARFSGSGSGTEYTLTISSLQSEDFAVYYCQQGYRNSDVHNPFGGGTKVEIK |
|  |  |  |  |  |  |  |  |  | ~0.1 | ~0.5 |  |  |  |  |  |  | hu48H10 (antibody, V domains shown, Humanized antibody; also called humanized 48H10) VH: EQQLVETGGGLIQPGGSLRLSCAASGFTINIDYWISWVRQAPGKGLEWIGIIDPGDGTTYFAIWVSGRFTISTDNSKNTVYLQMNSLRAEDTAVYFCAREFSASAYQYDLWGPGTLVTVSS VL: ELVMTQSPATLSVSPGERATLSCQASEDIESYLTWYQQKPGQPPRLLMYRASTLSSGVPARFSASGSGTEFTLTISSLQSEDFAVYYCQQGYRNKDVDNPFGGGTKVEIK |
